Laboratory results: the supplement of paper PMC10724198
± gives the standard deviation of the averaged measurements.

Legend:
[1] = test system: Saccharomyces cerevisiae; test: protein stability index of tFT-peptide fusion (C-terminal peptide) (PSI (0-1 scale)); higher = more stable (slower turnover); details: genetic background: wild type; temperature: 30 C
[2] = test system: Saccharomyces cerevisiae; test: as above
Procedure: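 MPS profiling in S. cerevisiae of the tFT-X12 degron library: putative degron peptides plus stable controls, 12 aa, fused to the C-terminus of a sfGFP-mCherry timer. Cells are FACS-sorted into 8 mCherry/sfGFP bins and deep-sequenced. PSI runs from 0 (unstable) to 1 (stable). Backgrounds are wild type, das1Δ and doa10Δ at 30 °C, and wild type, das1Δ, cdc34-1 and cdc53-1 at 37 °C; 2-3 technical replicates each.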

[3] = genetic background: cdc34-1, temperature: 37 C
[4] = genetic background: cdc53-1, temperature: 37 C
[5] = genetic background: das1 deletion, temperature: 30 C
[6] = genetic background: das1 deletion, temperature: 37 C
[7] = genetic background: doa10 deletion, temperature: 30 C
[8] = genetic background: wild type, temperature: 30 C
[9] = genetic background: wild type, temperature: 37 C
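Further: PSI is a weighted mean of sequencing reads over stability bins, variants kept only with over 10 reads, mCherry proximal and sfGFP distal, peptide attached via GGGS linker.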

Row | Sequence | protein stability index [1] | protein stability index [2, 3] | protein stability index [2, 4] | protein stability index [2, 5] | protein stability index [2, 6] | protein stability index [2, 7] | protein stability index [2, 8] | protein stability index [2, 9]
1 | GGVVGRPWWYVG | 0.425 ± 0.031 | 0.694 ± 0.023 | 0.79439 ± 0.00012 | 0.677 ± 0.014 | 0.795 ± 0.013 | 0.266 ± 0.015 | 0.301 ± 0.015 | 0.605 ± 0.017
2 | GRWLYSACVALN | 0.395 ± 0.017 | 0.62 ± 0.072 | 0.71 ± 0.014 | 0.596 ± 0.022 | 0.7063 ± 0.0033 | 0.195 ± 0.0073 | 0.196 ± 0.026 | 0.4027 ± 0.0021
3 | VYCLVLFFSQWC | 0.452 ± 0.011 | 0.42 ± 0.03 | 0.484 ± 0.011 | 0.365 ± 0.025 | 0.543 ± 0.016 | 0.353 ± 0.013 | 0.351 ± 0.016 | 0.509 ± 0.013
4 | SRVHHLWAILVP | 0.345 ± 0.016 | 0.231 ± 0.015 | 0.265 ± 0.0052 | 0.238 ± 0.034 | 0.3712 ± 0.0019 | 0.18 ± 0.0099 | 0.228 ± 0.026 | 0.339 ± 0.0039
5 | KLSLRYLLVSLI | 0.188 ± 0.049 | 0.513 ± 0.013 | 0.602 ± 0.045 | 0.456 ± 0.018 | 0.606 ± 0.011 | 0.101 ± 0.0044 | 0.115 ± 0.025 | 0.153 ± 0.012
6 | LFLYDFIALRCS | 0.415 ± 0.038 | 0.46 ± 0.016 | 0.55 ± 0.015 | 0.405 ± 0.025 | 0.566 ± 0.032 | 0.2104 ± 0.00034 | 0.24 ± 0.024 | 0.413 ± 0.012
7 | QGRRKEKAVTLN | 0.3 ± 0.015 | 0.652 ± 0.12 | 0.685 ± 0.016 | 0.648 ± 0.041 | 0.729 ± 0.019 | 0.175 ± 0.035 | 0.193 ± 0.032 | 0.241 ± 0.022
8 | VFMSVAPVSVLG | 0.29 ± 0.015 | 0.115 ± 0.047 | 0.118 ± 0.045 | 0.198 ± 0.026 | 0.2589 ± 0.00033 | 0.154 ± 0.016 | 0.184 ± 0.023 | 0.235 ± 0.0013
9 | GFFFWTMCFWVV | 0.284 ± 0.046 | 0.255 ± 0.01 | 0.349 ± 0.022 | 0.303 ± 0.038 | 0.456 ± 0.011 | 0.204 ± 0.0089 | 0.194 ± 0.02 | 0.322 ± 0.026
10 | VVRMRPRLFSLY | 0.3429 ± 0.0022 | 0.807 ± 0.04 | 0.8659 ± 0.0019 | 0.687 ± 0.047 | 0.816 ± 0.025 | 0.186 ± 0.011 | 0.208 ± 0.0086 | 0.354 ± 0.033
11 | PPLPPVCPSPSL | 0.485 ± 0.0061 | 0.665 ± 0.031 | 0.74 ± 0.027 | 0.658 ± 0.0035 | 0.7274 ± 0.0068 | 0.667 ± 0.023 | 0.685 ± 0.028 | 0.714 ± 0.004
12 | SGWGCRMVVCAG | 0.245 ± 0.0031 | 0.154 ± 0.026 | 0.192 ± 0.028 | 0.186 ± 0.027 | 0.299 ± 0.011 | 0.152 ± 0.0088 | 0.197 ± 0.029 | 0.265 ± 0.0084
13 | FLTSPSVWRYLF | 0.153 ± 0.036 | 0.623 ± 0.026 | 0.7196 ± 0.0049 | 0.693 ± 0.032 | 0.755 ± 0.0045 | 0.125 ± 0.046 | 0.139 ± 0.017 | 0.227 ± 0.017
14 | FLCVLYFFLCVE | 0.417 ± 0.18 | 0.218 ± 0.00042 | 0.3209 ± 0.0031 | 0.253 ± 0.03 | 0.404 ± 0.055 | 0.195 ± 0.01 | 0.224 ± 0.015 | 0.334 ± 0.022
15 | VELRNCYLLVKA | 0.327 ± 0.037 | 0.204 ± 0.0059 | 0.282 ± 0.013 | 0.222 ± 0.037 | 0.381 ± 0.013 | 0.178 ± 0.018 | 0.22 ± 0.032 | 0.34 ± 0.0065
16 | LSLVIFIFLYCR | 0.227 ± 0.053 | 0.0945 ± 0.016 | 0.123 ± 0.037 | 0.179 ± 0.0092 | 0.234 ± 0.0042 | 0.27 ± 0.033 | 0.169 ± 0.023 | 0.205 ± 0.027
17 | AERPVLIIIEFG | 0.417 ± 0.027 | 0.416 ± 0.039 | 0.532 ± 0.064 | 0.337 ± 0.031 | 0.5315 ± 0.0052 | 0.296 ± 0.015 | 0.339 ± 0.047 | 0.5248 ± 0.0013
18 | FWFSFSFLCHSY | 0.422 ± 0.016 | 0.384 ± 0.022 | 0.4491 ± 0.001 | 0.358 ± 0.032 | 0.4386 ± 0.001 | 0.386 ± 0.02 | 0.38 ± 0.0095 | 0.407 ± 0.02
19 | YSVERCLFVSVA | 0.414 ± 0.034 | 0.422 ± 0.025 | 0.4443 ± 0.0013 | 0.352 ± 0.034 | 0.502 ± 0.013 | 0.287 ± 0.02 | 0.314 ± 0.01 | 0.443 ± 0.018
20 | GPFGVGALVCCM | 0.433 ± 0.0072 | 0.462 ± 0.016 | 0.4425 ± 0.00085 | 0.333 ± 0.032 | 0.503 ± 0.0066 | 0.304 ± 0.01 | 0.351 ± 0.017 | 0.4844 ± 0.00066

Row | Sequence | protein stability index [1] | protein stability index [2, 3] | protein stability index [2, 4] | protein stability index [2, 5] | protein stability index [2, 6] | protein stability index [2, 7] | protein stability index [2, 8] | protein stability index [2, 9]
21 | TYYPLNRSRFIG | 0.277 ± 0.15 | 0.5858 ± 0.0048 | 0.7261 ± 0.0025 | 0.635 ± 0.035 | 0.7616 ± 0.0049 | 0.108 ± 0.0073 | 0.139 ± 0.0058 | 0.241 ± 0.023
22 | FSRPTYYFIRHS | 0.403 ± 0.029 | 0.629 ± 0.048 | 0.696 ± 0.03 | 0.658 ± 0.038 | 0.69 ± 0.011 | 0.26 ± 0.021 | 0.272 ± 0.058 | 0.475 ± 0.048
23 | LFLLSVNLLLGY | 0.237 ± 0.065 | 0.0581 ± 0.025 | 0.0949 ± 0.028 | 0.138 ± 0.035 | 0.191 ± 0.035 | 0.105 ± 0.0095 | 0.112 ± 0.04 | 0.163 ± 0.0081
24 | FCSNLLSMVIAV | 0.432 ± 0.014 | 0.344 ± 0.0055 | 0.382 ± 0.014 | 0.32 ± 0.032 | 0.4315 ± 0.0038 | 0.265 ± 0.012 | 0.3 ± 0.012 | 0.438 ± 0.029
25 | WLSWATRRIVLG | 0.47 ± 0.031 | 0.552 ± 0.037 | 0.611 ± 0.019 | 0.57 ± 0.02 | 0.605 ± 0.018 | 0.384 ± 0.008 | 0.401 ± 0.013 | 0.527 ± 0.012
26 | VCVVVLVGVVFL | 0.3 ± 0.036 | 0.188 ± 0.031 | 0.3491 ± 0.0012 | 0.237 ± 0.02 | 0.3828 ± 0.0025 | 0.198 ± 0.0055 | 0.24 ± 0.031 | 0.314 ± 0.0088
27 | GGVCVRMECWMG | 0.496 ± 0.0059 | 0.57 ± 0.036 | 0.629 ± 0.018 | 0.486 ± 0.032 | 0.5789 ± 0.0015 | 0.485 ± 0.03 | 0.496 ± 0.034 | 0.5864 ± 0.0051
28 | EVGTMALISCSV | 0.428 ± 0.034 | 0.3854 ± 0.001 | 0.356 ± 0.084 | 0.319 ± 0.05 | 0.458 ± 0.022 | 0.252 ± 0.019 | 0.288 ± 0.034 | 0.427 ± 0.039
29 | RRTTIFDTKEPP | 0.462 ± 0.017 | 0.561 ± 0.02 | 0.563 ± 0.028 | 0.523 ± 0.062 | 0.5752 ± 0.0014 | 0.532 ± 0.028 | 0.511 ± 0.019 | 0.5689 ± 0.0054
30 | GRPYHLCLFSCF | 0.353 ± 0.021 | 0.646 ± 0.018 | 0.754 ± 0.013 | 0.646 ± 0.036 | 0.754 ± 0.024 | 0.333 ± 0.024 | 0.343 ± 0.027 | 0.577 ± 0.016
31 | FSLGGVPYVFFV | 0.37 ± 0.019 | 0.628 ± 0.05 | 0.694 ± 0.012 | 0.587 ± 0.024 | 0.716 ± 0.01 | 0.195 ± 0.022 | 0.221 ± 0.029 | 0.4579 ± 0.0017
32 | VTLVIYVLVQLT | 0.188 ± 0.035 | 0.148 ± 0.062 | 0.198 ± 0.11 | 0.156 ± 0.044 | 0.259 ± 0.0037 | 0.123 ± 0.02 | 0.15 ± 0.031 | 0.216 ± 0.037
33 | FLRWRVWVVVGW | 0.234 ± 0.0043 | 0.187 ± 0.023 | 0.259 ± 0.024 | 0.199 ± 0.035 | 0.358 ± 0.027 | 0.18 ± 0.012 | 0.181 ± 0.021 | 0.332 ± 0.039
34 | LFRGVWYYFLVR | 0.507 ± 0.028 | 0.486 ± 0.041 | 0.5274 ± 0.0022 | 0.445 ± 0.021 | 0.61 ± 0.0087 | 0.504 ± 0.029 | 0.438 ± 0.029 | 0.586 ± 0.019
35 | SGRATSSRTSEP | 0.78 ± 0.024 | 0.67 ± 0.035 | 0.72963 ± 0.00027 | 0.661 ± 0.01 | 0.713 ± 0.0042 | 0.662 ± 0.03 | 0.6625 ± 0.0048 | 0.7036 ± 0.0011
36 | ISPCLVRLWYRI | 0.175 ± 0.033 | 0.462 ± 0.053 | 0.574 ± 0.021 | 0.544 ± 0.018 | 0.673 ± 0.019 | 0.103 ± 0.028 | 0.102 ± 0.037 | 0.168 ± 0.026
37 | MALAVRVVSCGA | 0.3657 ± 0.0028 | 0.294 ± 0.015 | 0.3333 ± 0.0024 | 0.265 ± 0.032 | 0.4146 ± 0.0036 | 0.2244 ± 0.00017 | 0.262 ± 0.016 | 0.3802 ± 0.0015
38 | GSRVICMVVATM | 0.488 ± 0.022 | 0.546 ± 0.044 | 0.611 ± 0.016 | 0.463 ± 0.041 | 0.6078 ± 0.0058 | 0.419 ± 0.035 | 0.436 ± 0.02 | 0.582 ± 0.0029
39 | FFVFLVLFCLWV | 0.391 ± 0.076 | 0.278 ± 0.027 | 0.259 ± 0.065 | 0.302 ± 0.035 | 0.397 ± 0.008 | 0.321 ± 0.022 | 0.261 ± 0.031 | 0.356 ± 0.0055
